Experimental data taken from paper PMC5952157.

Target: V5-HAX-1 (HCLS1-associated protein X-1) (human) (UniProt O00165)
Assay: co-IP

Sequence of UniProt O00165 (O00165 whole entry): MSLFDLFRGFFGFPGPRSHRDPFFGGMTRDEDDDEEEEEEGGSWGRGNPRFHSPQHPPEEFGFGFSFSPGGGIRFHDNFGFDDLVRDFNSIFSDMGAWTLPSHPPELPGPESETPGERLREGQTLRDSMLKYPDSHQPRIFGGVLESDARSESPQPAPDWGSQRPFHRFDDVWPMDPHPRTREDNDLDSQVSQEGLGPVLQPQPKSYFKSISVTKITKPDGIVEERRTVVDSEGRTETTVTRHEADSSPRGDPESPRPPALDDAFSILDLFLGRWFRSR

Substance “VN/1203 PB1-F2 coexpressed as competitor (Figure 8c) (natural protein)” has a percent decrease of HAX-1 bound to PA in the presence of PB1-F2 of 80%.
